# In publication PMC3542976:
# Read-outs that look alike come from different tables or passages of the source.
# B1: r(TSA3)/drd(BS) A3-bulged chimeric duplex (mixed)
# RNA: GGGAGAGGCAAGUCGUUCGGUCGCGUUCGCAAAUGUCGUCGCGUCUUGUAUGCCACUGUACCC
# DNA: GGGTACAGTGGCATACAAGACGCGACGACAGCGAACGCGACCGAACGACTTGCCTCTCCC
# modifications: strand 2 is DNA22-RNA16-DNA22 (RNA at 23-38)
# B2: r(TSA6)/drd(BS) A6-bulged chimeric duplex (mixed)
# RNA: GGGAGAGGCAAGUCGUUCGGUCGCGUUCGCAAAAAAUGUCGUCGCGUCUUGUAUGCCACUGUACCC
# DNA: B1 DNA
# modifications: strand 2 is DNA22-RNA16-DNA22 (RNA at 23-38)
# Assays:
# [1] = molecular target: PKR K296R full length (UniProt P19525 1-551, K296R); assay: EMSA
# [2] = molecular target: T1, p20 (dsRBD of PKR) (UniProt P19525 1-184); assay: SAXS
# [3] = molecular target: T1, p20 (dsRBD of PKR); assay: SAXS; remark: listed apart in the source
# Chain of PKR K296R full length (P19525 whole entry K296R): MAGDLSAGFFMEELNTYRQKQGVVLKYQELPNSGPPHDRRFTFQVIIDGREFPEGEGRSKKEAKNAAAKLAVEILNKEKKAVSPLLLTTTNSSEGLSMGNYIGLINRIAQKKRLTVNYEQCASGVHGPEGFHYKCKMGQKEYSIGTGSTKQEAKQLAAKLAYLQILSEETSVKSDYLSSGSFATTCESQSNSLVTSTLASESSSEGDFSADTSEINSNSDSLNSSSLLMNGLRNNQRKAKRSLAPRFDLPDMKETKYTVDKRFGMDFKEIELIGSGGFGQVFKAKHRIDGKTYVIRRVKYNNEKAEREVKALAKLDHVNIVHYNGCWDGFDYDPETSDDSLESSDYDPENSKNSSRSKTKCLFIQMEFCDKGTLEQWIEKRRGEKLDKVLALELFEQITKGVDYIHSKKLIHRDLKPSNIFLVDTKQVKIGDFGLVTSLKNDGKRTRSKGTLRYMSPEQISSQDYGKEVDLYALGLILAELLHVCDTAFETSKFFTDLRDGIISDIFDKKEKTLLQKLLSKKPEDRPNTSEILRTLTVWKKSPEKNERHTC
# T1 sequence (P19525 1-184): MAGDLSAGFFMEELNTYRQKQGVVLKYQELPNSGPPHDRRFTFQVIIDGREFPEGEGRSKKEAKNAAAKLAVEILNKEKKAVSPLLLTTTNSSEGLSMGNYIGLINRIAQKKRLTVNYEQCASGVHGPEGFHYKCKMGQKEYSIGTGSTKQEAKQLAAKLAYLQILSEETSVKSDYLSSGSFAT
Binder,binding result [1],binding result [2],binding result [3]
B1,binds,binds,
B2,binds,,binds
